# Assay results reported in paper PMC7730289.
# Tests used:
# Test in all cases: flow cytometry
# CD63 on MDA-MB-231 cells = CD63 on MDA-MB-231 cells (UniProt P08962); details: MDA-MB-231 cells; PBS pH 7.4, 2.0 mM MgCl2, 0.02% Tween 20, 100 ug/mL salmon sperm DNA; ELISA 0.5 h; cells at RT 1 h (Methods) or 37 C 30 min (Results)
# [1] = target: CD63 overexpressed on HEK293T cells (UniProt P08962); details: HEK293T/CD63 cells; PBS pH 7.4, 2.0 mM MgCl2, 0.02% Tween 20, 100 ug/mL salmon sperm DNA; ELISA 0.5 h; cells at RT 1 h (Methods) or 37 C 30 min (Results)
# [2] = test system: CD63-negative HEK293T cells; details: PBS pH 7.4, 2.0 mM MgCl2, 0.02% Tween 20, 100 ug/mL salmon sperm DNA, ELISA 0.5 h, cells at RT 1 h (Methods) or 37 C 30 min (Results)
# Chain of CD63 on MDA-MB-231 cells (P08962 2-238): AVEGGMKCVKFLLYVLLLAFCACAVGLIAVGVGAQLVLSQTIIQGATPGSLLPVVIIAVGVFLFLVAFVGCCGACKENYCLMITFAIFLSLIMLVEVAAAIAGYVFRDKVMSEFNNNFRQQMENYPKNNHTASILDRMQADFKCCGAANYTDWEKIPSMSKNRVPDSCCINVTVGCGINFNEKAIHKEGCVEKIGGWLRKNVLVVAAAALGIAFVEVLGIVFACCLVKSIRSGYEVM
# Chain of CD63 overexpressed on HEK293T cells (P08962 whole entry): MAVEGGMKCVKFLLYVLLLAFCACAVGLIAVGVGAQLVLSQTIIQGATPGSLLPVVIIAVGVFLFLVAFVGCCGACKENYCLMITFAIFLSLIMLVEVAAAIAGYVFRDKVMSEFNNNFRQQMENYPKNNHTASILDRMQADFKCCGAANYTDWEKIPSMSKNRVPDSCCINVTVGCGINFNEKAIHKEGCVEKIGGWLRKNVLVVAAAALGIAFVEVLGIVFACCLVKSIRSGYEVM
sequence,measurement,setting,value
TAACACGACAGACGTTCGGAGGTCGAACCCTGACAGCGTGGGC [CD63-1 FAM],Kd,CD63 on MDA-MB-231 cells,96.9 nM
same,Kd,[1],113 nM
same,Kd,[2],> 1000 nM
